Consider ten molecules from patent publication US20200216558A1 (US Dept. of Health and Human Services, published 2020).

Test [1] addresses T1, recombinant GPC2-hFc fusion protein (human, UniProt Q8N158 24-553).
T1 construct: range 24-553; Made in 293T cells with an IL-2 secretion signal (not part of the secreted protein); biotinylated for the Octet assay; also called GPC2 protein; recombinant human GPC2; not shown: human IgG Fc (hFc) at the C terminus
T1 sequence (looked up): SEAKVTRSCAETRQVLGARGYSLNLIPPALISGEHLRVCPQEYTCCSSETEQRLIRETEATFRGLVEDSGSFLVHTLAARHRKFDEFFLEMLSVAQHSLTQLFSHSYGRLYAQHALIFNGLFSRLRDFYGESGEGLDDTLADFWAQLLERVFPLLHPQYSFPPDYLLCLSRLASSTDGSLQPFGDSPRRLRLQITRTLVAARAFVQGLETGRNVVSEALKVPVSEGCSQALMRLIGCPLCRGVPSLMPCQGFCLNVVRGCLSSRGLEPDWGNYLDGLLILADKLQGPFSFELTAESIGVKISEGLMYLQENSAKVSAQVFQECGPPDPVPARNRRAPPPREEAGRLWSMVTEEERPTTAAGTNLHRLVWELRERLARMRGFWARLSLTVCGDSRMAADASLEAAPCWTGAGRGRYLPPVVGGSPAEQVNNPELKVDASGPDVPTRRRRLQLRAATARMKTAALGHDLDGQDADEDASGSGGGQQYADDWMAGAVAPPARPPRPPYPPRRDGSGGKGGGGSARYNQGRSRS
The experiment in a line: monoclonal phage ELISA, coated GPC2-hFc vs BSA. In general terms: In an ELISA, binding on a coated surface is turned into a signal by an enzyme label.

The target of a further test is T2, recombinant human GPC1 (human, UniProt P35052 24-530, limits assumed).
T2 sequence (looked up): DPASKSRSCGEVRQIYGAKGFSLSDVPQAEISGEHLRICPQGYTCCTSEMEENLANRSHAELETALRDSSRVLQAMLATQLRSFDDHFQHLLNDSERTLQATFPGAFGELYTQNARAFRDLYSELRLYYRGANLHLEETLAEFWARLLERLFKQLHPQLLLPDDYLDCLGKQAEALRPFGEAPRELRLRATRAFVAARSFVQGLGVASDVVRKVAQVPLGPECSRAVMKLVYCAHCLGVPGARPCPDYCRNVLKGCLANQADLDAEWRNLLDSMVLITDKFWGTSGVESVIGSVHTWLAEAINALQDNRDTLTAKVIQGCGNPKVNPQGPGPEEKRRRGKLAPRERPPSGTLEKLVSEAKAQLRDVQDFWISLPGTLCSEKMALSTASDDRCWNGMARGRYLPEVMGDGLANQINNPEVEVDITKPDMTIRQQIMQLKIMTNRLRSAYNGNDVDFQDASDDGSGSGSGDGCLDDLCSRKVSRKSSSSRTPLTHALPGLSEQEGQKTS
The experiment in a line: monoclonal phage ELISA on recombinant glypicans.

For another test, the target named is T3, recombinant mouse GPC2 (mouse, UniProt Q8BKV1 22-556, limits assumed).
T3 sequence (looked up): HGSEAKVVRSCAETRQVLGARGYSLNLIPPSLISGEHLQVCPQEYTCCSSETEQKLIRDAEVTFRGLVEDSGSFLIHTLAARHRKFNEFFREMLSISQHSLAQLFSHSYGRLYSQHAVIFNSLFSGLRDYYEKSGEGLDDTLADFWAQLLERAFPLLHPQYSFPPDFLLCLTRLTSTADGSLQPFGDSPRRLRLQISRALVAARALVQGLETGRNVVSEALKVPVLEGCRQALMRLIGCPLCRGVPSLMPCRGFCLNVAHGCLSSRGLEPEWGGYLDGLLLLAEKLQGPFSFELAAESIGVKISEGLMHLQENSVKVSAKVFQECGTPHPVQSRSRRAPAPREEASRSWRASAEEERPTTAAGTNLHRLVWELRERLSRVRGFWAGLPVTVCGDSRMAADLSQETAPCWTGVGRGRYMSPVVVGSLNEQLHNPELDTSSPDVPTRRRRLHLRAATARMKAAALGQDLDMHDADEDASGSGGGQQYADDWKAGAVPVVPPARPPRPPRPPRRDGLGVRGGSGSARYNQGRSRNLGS
The test is described as follows: monoclonal phage ELISA on recombinant glypicans.

A further test deals with recombinant human GPC3 (human, UniProt P51654 25-559, limits assumed). The test is described as follows: monoclonal phage ELISA on recombinant glypicans.
recombinant human GPC3, sequence (P51654 25-559 limits assumed): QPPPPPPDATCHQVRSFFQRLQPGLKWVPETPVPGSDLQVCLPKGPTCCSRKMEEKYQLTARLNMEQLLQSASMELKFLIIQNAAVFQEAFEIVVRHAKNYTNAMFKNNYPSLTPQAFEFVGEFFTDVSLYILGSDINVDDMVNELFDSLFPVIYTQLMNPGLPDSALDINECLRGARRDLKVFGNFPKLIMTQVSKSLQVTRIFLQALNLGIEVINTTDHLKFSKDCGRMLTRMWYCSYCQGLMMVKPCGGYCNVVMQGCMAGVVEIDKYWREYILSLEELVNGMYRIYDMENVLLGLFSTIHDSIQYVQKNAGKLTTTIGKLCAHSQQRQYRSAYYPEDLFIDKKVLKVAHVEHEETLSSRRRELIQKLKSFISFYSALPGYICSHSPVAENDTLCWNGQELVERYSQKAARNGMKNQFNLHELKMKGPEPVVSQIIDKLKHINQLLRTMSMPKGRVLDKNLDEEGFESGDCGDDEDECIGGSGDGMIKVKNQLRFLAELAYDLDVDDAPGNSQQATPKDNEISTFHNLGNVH
For test [2], the target named is T1, recombinant GPC2-hFc fusion protein. The experiment in a line: Octet RED96 BLI, biotinylated GPC2-hFc on streptavidin biosensors, 30 °C.
Protocol: (§1) Briefly, all experiments were performed at 30° C. and reagents were prepared in 0.1% BSA, 0.1% Tween20 PBS, pH 7.4 buffer. […] Data analysis was performed using the Fort\tilde{e}Bio analysis software provided with the instrument.
For test [3] the target is unchanged. The experiment in a line: Octet RED96 biolayer interferometry, biotinylated GPC2-hFc on streptavidin biosensors, LH7 at 1000, 500 and 100 nM. On the technique in general: Biolayer interferometry detects binding as a change in optical thickness at a sensor tip.
Protocol: as §1
Test [4] has the same target. The test is described as follows: ELISA, coated GPC2-hFc, detection with anti-Pseudomonas exotoxin A antibody.
Protocol: Then a series of diluted immunotoxins were added to each well. Anti-Pseudomonas exotoxin A antibody (Sigma-Aldrich) and HRP-conjugated secondary antibody (Jackson Immunoresearch) were used to detect binding. EC₅₀ values were determined by Prism 6.0 software (GraphPad).
The target is the same in test [5]. The test is described as follows: ELISA on coated GPC2-hFc, detection with anti-Pseudomonas exotoxin A antibody and HRP secondary.

Protocol for recombinant human GPC1: (§2) Both plate and phage were blocked with 3% skim milk in PBS/0.05% Tween-20 for 1 hour at room temperature. Then pre-blocked phage supernatant was added to the plate. Binding was detected by HRP-conjugated mouse anti-M13 antibody (GE Healthcare).
Protocol for recombinant human GPC3: as §2
Protocol for recombinant mouse GPC2: as §2

B1: VH single domain antibody LH6 (phage clone) (VHH)
VHH: QVQLVQSGGGLVQPGGSLRLSCAASDFYFDDYEMSWVRQAPGKGLEWVSTISGSGGGTYYADSVKGRFTISRDNSKNTLYLQMNTLRAEDTATYYCARGYSYDDSRYFDYWGQGTLVTVSS
notes: Human VH single domain
As for B1, the “fold OD450 nm on GPC2-hFc over BSA” value in test [1] was no less than 5 fold. Moreover, the binding result is “no binding” in the test with recombinant human GPC1, “binds” in the test with recombinant mouse GPC2 and “no binding” with recombinant human GPC3.

B2: LH7-Fc fusion protein (Fc fusion)
chain: QVQLVQSGGGLVQPGGSLRLSCAASDFYFYDYEMSWVRQAPGKGLEWIGTVSYSGSTYYNPSLKSRVTISRDNSKNTLYLQMNTLRAEDTAMYYCARGYSYDDSRYFDYWGQGTLVTVSS
notes: Soluble LH7 as used in Octet, flow cytometry and HEK293 Supertopflash assays; also called LH7 antibody; LH7 single domain antibody; not shown: Fc: antibodies were fused with either human Fc (hFc) or mouse IgG Fc (mFc); which one was used in this assay, its subcla
Turning to B2, the Kd (in general, the free concentration of one partner at which half of the binding sites on the other are occupied at equilibrium, for simple one-to-one binding) in test [2] was 9.8 nM. In test [3], the koff (as a rule, the first-order rate constant of dissociation) was 0.00052 s⁻¹ and the kon (usually the second-order rate constant of association) is 53100 M⁻¹ s⁻¹.

B3: LH7-PE38 monomeric immunotoxin (other)
VH: QVQLVQSGGGLVQPGGSLRLSCAASDFYFYDYEMSWVRQAPGKGLEWIGTVSYSGSTYYNPSLKSRVTISRDNSKNTLYLQMNTLRAEDTAMYYCARGYSYDDSRYFDYWGQGTLVTVSS
As for B3, the EC50 (as a rule, the concentration at which the effect is half-maximal) in test [4] was 18 nM; in test [5], 18.4 nM. Also, the EC50 (read off the curve) (in general, the concentration giving half of the maximal effect) in test [5] is roughly 1 µg/mL.

B4: VH single domain antibody LH7 (phage clone) (VHH)
VHH: QVQLVQSGGGLVQPGGSLRLSCAASDFYFYDYEMSWVRQAPGKGLEWIGTVSYSGSTYYNPSLKSRVTISRDNSKNTLYLQMNTLRAEDTAMYYCARGYSYDDSRYFDYWGQGTLVTVSS
notes: Human VH single domain
Take B4: the “fold OD450 nm on GPC2-hFc over BSA” value in test [1] is no less than 5 fold. Moreover, the binding result with recombinant human GPC1, in the test with recombinant mouse GPC2 and with recombinant human GPC3 was “no binding” each time.

B5: VH single domain antibody LH3 (phage clone) (VHH)
VHH: QVQLVQSGGGLVQPGGSLRLSCAASSFSFADYEMSWVRQAPGKALEWIGRIYTSGSTNYNPSLKSRVTISRDNSKNTLYLQMNTLRAEDTATYYCARGYSGYDGSHYFDYWGQGTLVTVSS
notes: Human VH single domain
B5: the “fold OD450 nm on GPC2-hFc over BSA” value in test [1] was no less than 5 fold. For the same molecule, the binding result with recombinant human GPC1 and with recombinant mouse GPC2 was “binds” in each case.

B6: VH single domain antibody LH4 (phage clone) (VHH)
VHH: QVQLVQSGGGLVQPGGSLRLSCAASSFYFDDYEMSWVRQAPGKALEWIGRIYTSGSTNYNPSLKSRVTISRDNSKNTLYLQMNTLRAEDTATYYCARGYCSGGSCYFDYWGQGTLVTVSS
notes: Human VH single domain
On to B6, for which the “fold OD450 nm on GPC2-hFc over BSA” value in test [1] is no less than 5 fold. The binding result in the test with recombinant human GPC1 is on record as “no binding”; with recombinant mouse GPC2 it was “binds”; with recombinant human GPC3 it was “no binding”.

B7: LH4-PE38 (other)
VH: QVQLVQSGGGLVQPGGSLRLSCAASSFYFDDYEMSWVRQAPGKALEWIGRIYTSGSTNYNPSLKSRVTISRDNSKNTLYLQMNTLRAEDTATYYCARGYCSGGSCYFDYWGQGTLVTVSS
notes: One of the three immunotoxins of group m11; also called LH4-PE38 immunotoxin
On to B7, for which the EC50 in test [5] is 43.9 nM.

B8: VH single domain antibody LH2 (phage clone) (VHH)
VHH: QVQLVQSGGGLVQPGGSLRLSCAASDFYFYSYEVSWVRQAPGKALEWIGYIYYSGSTTYNPSLKSRVTISRDNSKNTLYLQMNTLRAEDTAIYYCAVRDNWNDVDYWGQGTLVTVSS
notes: Human VH single domain
In the case of B8, the “fold OD450 nm on GPC2-hFc over BSA” value in test [1] was no less than 5 fold. For the same molecule, the binding result in the test with recombinant human GPC1, in the test with recombinant mouse GPC2 and with recombinant human GPC3 was “no binding” in each case.

B9: LH1-PE38 (other)
VH: QVQLVQSGGGLVQPGGSLRLSCAASDFDFAAYEMSWVRQAPGKGLEWIGEINHSGSTTYNPSLKSRVTISRDNSKNTLYLQMNTLRAEDTAVYYCATAVHYYDSSGYYHDAFDIWGQGTLVTVSS
notes: One of the three immunotoxins of group m11; also called LH1-PE38 immunotoxin
Regarding B9, in test [5], the concentration for a half-maximal effect (EC50) came out at 4.55 nM and the “EC50 (read off the curve)” value is roughly 0.2 µg/mL.

B10: VH single domain antibody LH1 (phage clone) (VHH)
VHH: QVQLVQSGGGLVQPGGSLRLSCAASDFDFAAYEMSWVRQAPGKGLEWIGEINHSGSTTYNPSLKSRVTISRDNSKNTLYLQMNTLRAEDTAVYYCATAVHYYDSSGYYHDAFDIWGQGTLVTVSS
notes: Human VH single domain (not camelid)
Turning to B10, the “fold OD450 nm on GPC2-hFc over BSA” value in test [1] was no less than 5 fold. Besides, the binding result with recombinant human GPC1, with recombinant mouse GPC2 and with recombinant human GPC3 was “no binding” each time.
